This is an account of results in article PMC12102759 (2025).

To fix the notation:
B1: SH3BP2 peptide 408-423 (SH3 domain-binding protein 2), 16-mer library wild type / TNKS ANK (TNKS 12 ANK repeats, residues 174-649) (parent complex)
chain 1: PQLPHLQRSPPDGQSF
chain 2: TGVPAVSGALRELLEACRNGDVSRVKRLVDAANVNAKDMAGRKSSPLHFAAGFGRKDVVEHLLQMGANVHARDDGGLIPLHNACSFGHAEVVSLLLCQGADPNARDNWNYTPLHEAAIKGKIDVCIVLLQHGADPNIRNTDGKSALDLADPSAKAVLTGEYKKDELLEAARSGNEEKLMALLTPLNVNCHASDGRKSTPLHLAAGYNRVRIVQLLLQHGADVHAKDKGGLVPLHNACSYGHYEVTELLLKHGACVNAMDLWQFTPLHEAASKNRVEVCSLLLSHGADPTLVNCHGKSAVDMAPTPELRERLTYEFKGHSLLQAAREADLAKVKKTLALEIINFKQPQSHETALHCAVASLHPKRKQVTELLLRKGANVNEKNKDFMTPLHVAAERAHNDVMEVLHKHGAKMNALDTLGQTALHRAALAGHLQTCRLLLSYGSDPSIISLQGFTAAQMGNEAVQQILSESTPIRTSD
B2: CBL peptide 538-553 (E3 ubiquitin-protein ligase CBL), 16-mer library wild type / YES SH3 (YES1 SH3 domain, residues 90-152) (parent complex)
chain 1: TLRDLPPPPPPDRPYS
chain 2: not shown

Variants of B1 are the subject of one test. The test can be described thus: proteomic peptide phage display deep mutational scan (ProP-PD DMS): M13 P8 16-mer library selected against immobilised GST-tagged bait for four days (rounds), NGS of the eluted pools per day and pseudo-replica; bait immobilised on MaxiSorp plates (10 µg), library pre-cleared on GST, 2 h binding at 4 °C, five washes; one round per day, days 1-4; value from days 2 and 3.
On to chain 1 PQLPHLQRFPPDGQSF [chain 1 S9F], for which the screen value is 0.00032 average fractional NGS count over selection days 2 and 3 (reads of this peptide / all reads for the bait, averaged over ….

Turning to chain 1 PQLPHLQREPPDGQSF [chain 1 S9E], the screen value is 0.00024 average fractional NGS count over selection days 2 and 3 (reads of this peptide / all reads for the bait, averaged over ….

chain 1 PQLPHLQRVPPDGQSF [chain 1 S9V]: the screen value was 0.0149 average fractional NGS count over selection days 2 and 3 (reads of this peptide / all reads for the bait, averaged over ….

chain 1 PQLPHLQRIPPDGQSF [chain 1 S9I]: the screen value was 0.00144 average fractional NGS count over selection days 2 and 3 (reads of this peptide / all reads for the bait, averaged over ….

Regarding chain 1 PQLPHLQRSQPDGQSF [chain 1 P10Q], the screen value was 0.00105 average fractional NGS count over selection days 2 and 3 (reads of this peptide / all reads for the bait, averaged over ….

Regarding chain 1 PQLPHLQRSWPDGQSF [chain 1 P10W], the screen value is 0.000201 average fractional NGS count over selection days 2 and 3 (reads of this peptide / all reads for the bait, averaged over ….

With chain 1 PQLPHLQRSIPDGQSF [chain 1 P10I], the screen value is 0.00249 average fractional NGS count over selection days 2 and 3 (reads of this peptide / all reads for the bait, averaged over ….

For chain 1 PQLPHLQRSEPDGQSF [chain 1 P10E], the screen value was 0.00215 average fractional NGS count over selection days 2 and 3 (reads of this peptide / all reads for the bait, averaged over ….

Take chain 1 PQLPHLQRSNPDGQSF [chain 1 P10N]: the screen value is 0.00386 average fractional NGS count over selection days 2 and 3 (reads of this peptide / all reads for the bait, averaged over ….

chain 1 PQLPHLQRSYPDGQSF [chain 1 P10Y]: the screen value is 0.000858 average fractional NGS count over selection days 2 and 3 (reads of this peptide / all reads for the bait, averaged over ….

With chain 1 PQLPHLQRSTPDGQSF [chain 1 P10T], the screen value was 0.00166 average fractional NGS count over selection days 2 and 3 (reads of this peptide / all reads for the bait, averaged over ….

With chain 1 PQLPHLQRSDPDGQSF [chain 1 P10D], the screen value is 0.000749 average fractional NGS count over selection days 2 and 3 (reads of this peptide / all reads for the bait, averaged over ….

For chain 1 PQLPHLQRSSPDGQSF [chain 1 P10S], the screen value is 0.000405 average fractional NGS count over selection days 2 and 3 (reads of this peptide / all reads for the bait, averaged over ….

On to chain 1 PQLPHLQRSPPDGQVF [chain 1 S15V], for which the screen value was 0.000578 average fractional NGS count over selection days 2 and 3 (reads of this peptide / all reads for the bait, averaged over ….

In the case of chain 1 PQLPHLQRSPPDGQEF [chain 1 S15E], the screen value is 0.000326 average fractional NGS count over selection days 2 and 3 (reads of this peptide / all reads for the bait, averaged over ….

For chain 1 PQLPHLQRSPPDGQLF [chain 1 S15L], the screen value is 0.00151 average fractional NGS count over selection days 2 and 3 (reads of this peptide / all reads for the bait, averaged over ….

Consider chain 1 PQLPHLQRSPPDGQMF [chain 1 S15M], for which the screen value was 0.000289 average fractional NGS count over selection days 2 and 3 (reads of this peptide / all reads for the bait, averaged over ….

In the case of chain 1 PQLPHLQRSPPDGQIF [chain 1 S15I], the screen value is 0.000286 average fractional NGS count over selection days 2 and 3 (reads of this peptide / all reads for the bait, averaged over ….

As for chain 1 PQLPHLQRSPPDGQDF [chain 1 S15D], the screen value was 0.000182 average fractional NGS count over selection days 2 and 3 (reads of this peptide / all reads for the bait, averaged over ….

For chain 1 PQLPHLQRSPPDGQKF [chain 1 S15K], the screen value is 0.000127 average fractional NGS count over selection days 2 and 3 (reads of this peptide / all reads for the bait, averaged over ….

As for chain 1 PQLPHLQRSPPDGQHF [chain 1 S15H], the screen value is 0.000369 average fractional NGS count over selection days 2 and 3 (reads of this peptide / all reads for the bait, averaged over ….

Regarding chain 1 PQLPHLQRSPPDGQNF [chain 1 S15N], the screen value is 0.000592 average fractional NGS count over selection days 2 and 3 (reads of this peptide / all reads for the bait, averaged over ….

A further test covers variants of B2. The description is as above.
Regarding chain 1 P10N, the screen value was 0.000197 average fractional NGS count over selection days 2 and 3 (reads of this peptide / all reads for the bait, averaged over ….

For chain 1 P10M, the screen value is 0.000512 average fractional NGS count over selection days 2 and 3 (reads of this peptide / all reads for the bait, averaged over ….

For chain 1 P10S, the screen value is 0.00132 average fractional NGS count over selection days 2 and 3 (reads of this peptide / all reads for the bait, averaged over ….

As for chain 1 P10W, the screen value was 0.00035 average fractional NGS count over selection days 2 and 3 (reads of this peptide / all reads for the bait, averaged over ….

For chain 1 P10F, the screen value was 0.0021 average fractional NGS count over selection days 2 and 3 (reads of this peptide / all reads for the bait, averaged over ….

As to chain 1 P10I, the screen value was 0.00183 average fractional NGS count over selection days 2 and 3 (reads of this peptide / all reads for the bait, averaged over ….

For chain 1 P14V, the screen value is 0.0011 average fractional NGS count over selection days 2 and 3 (reads of this peptide / all reads for the bait, averaged over ….

As for chain 1 P14L, the screen value is 0.00213 average fractional NGS count over selection days 2 and 3 (reads of this peptide / all reads for the bait, averaged over ….

As for chain 1 P14S, the screen value was 0.00038 average fractional NGS count over selection days 2 and 3 (reads of this peptide / all reads for the bait, averaged over ….

Take chain 1 L2M: the screen value is 0.00216 average fractional NGS count over selection days 2 and 3 (reads of this peptide / all reads for the bait, averaged over ….

Take chain 1 L2A: the screen value was 0.00082 average fractional NGS count over selection days 2 and 3 (reads of this peptide / all reads for the bait, averaged over ….

In the case of chain 1 D4H, the screen value is 0.000257 average fractional NGS count over selection days 2 and 3 (reads of this peptide / all reads for the bait, averaged over ….

With chain 1 D4F, the screen value was 5.77e-05 average fractional NGS count over selection days 2 and 3 (reads of this peptide / all reads for the bait, averaged over ….

Turning to chain 1 D4S, the screen value was 7.92e-05 average fractional NGS count over selection days 2 and 3 (reads of this peptide / all reads for the bait, averaged over ….

For chain 1 D4T, the screen value is 0.00181 average fractional NGS count over selection days 2 and 3 (reads of this peptide / all reads for the bait, averaged over ….

Regarding chain 1 R3I, the screen value was 0.000159 average fractional NGS count over selection days 2 and 3 (reads of this peptide / all reads for the bait, averaged over ….

As to chain 1 R3K, the screen value is 0.000536 average fractional NGS count over selection days 2 and 3 (reads of this peptide / all reads for the bait, averaged over ….

For chain 1 R3F, the screen value was 0.000372 average fractional NGS count over selection days 2 and 3 (reads of this peptide / all reads for the bait, averaged over ….

chain 1 P9A: the screen value was 0.000623 average fractional NGS count over selection days 2 and 3 (reads of this peptide / all reads for the bait, averaged over ….

As to chain 1 P7M, the screen value was 0.000243 average fractional NGS count over selection days 2 and 3 (reads of this peptide / all reads for the bait, averaged over ….

On to chain 1 P7T, for which the screen value was 0.000231 average fractional NGS count over selection days 2 and 3 (reads of this peptide / all reads for the bait, averaged over ….

Consider chain 1 P11K, for which the screen value was 0.00117 average fractional NGS count over selection days 2 and 3 (reads of this peptide / all reads for the bait, averaged over ….

As to chain 1 P11Y, the screen value is 0.00117 average fractional NGS count over selection days 2 and 3 (reads of this peptide / all reads for the bait, averaged over ….

As for chain 1 P11R, the screen value is 0.000288 average fractional NGS count over selection days 2 and 3 (reads of this peptide / all reads for the bait, averaged over ….

Turning to chain 1 Y15Q, the screen value was 0.000766 average fractional NGS count over selection days 2 and 3 (reads of this peptide / all reads for the bait, averaged over ….

As for chain 1 Y15N, the screen value was 7.8e-05 average fractional NGS count over selection days 2 and 3 (reads of this peptide / all reads for the bait, averaged over ….

For chain 1 Y15M, the screen value is 0.000526 average fractional NGS count over selection days 2 and 3 (reads of this peptide / all reads for the bait, averaged over ….

Turning to chain 1 S16Q, the screen value is 9.78e-05 average fractional NGS count over selection days 2 and 3 (reads of this peptide / all reads for the bait, averaged over ….

For the variant chain 1 S16A, the screen value was 0.00886 average fractional NGS count over selection days 2 and 3 (reads of this peptide / all reads for the bait, averaged over ….

For the variant chain 1 S16L, the screen value is 0.000883 average fractional NGS count over selection days 2 and 3 (reads of this peptide / all reads for the bait, averaged over ….

Regarding chain 1 S16H, the screen value is 0.00402 average fractional NGS count over selection days 2 and 3 (reads of this peptide / all reads for the bait, averaged over ….

With chain 1 D12V, the screen value was 0.00115 average fractional NGS count over selection days 2 and 3 (reads of this peptide / all reads for the bait, averaged over ….

Turning to chain 1 D12T, the screen value was 0.00128 average fractional NGS count over selection days 2 and 3 (reads of this peptide / all reads for the bait, averaged over ….

Regarding chain 1 D12Q, the screen value was 0.00108 average fractional NGS count over selection days 2 and 3 (reads of this peptide / all reads for the bait, averaged over ….

Take chain 1 R13F: the screen value is 0.000441 average fractional NGS count over selection days 2 and 3 (reads of this peptide / all reads for the bait, averaged over ….

For the variant chain 1 R13S, the screen value is 0.000102 average fractional NGS count over selection days 2 and 3 (reads of this peptide / all reads for the bait, averaged over ….

With chain 1 R13I, the screen value is 0.000728 average fractional NGS count over selection days 2 and 3 (reads of this peptide / all reads for the bait, averaged over ….

Consider chain 1 R13T, for which the screen value is 0.000227 average fractional NGS count over selection days 2 and 3 (reads of this peptide / all reads for the bait, averaged over ….

For chain 1 L5I, the screen value is 5.25e-05 average fractional NGS count over selection days 2 and 3 (reads of this peptide / all reads for the bait, averaged over ….
